Among the data in US20070099837A1 are Cell Proliferation (percent of control), BAF3 cells expressing FGFR3α-IIIc with zFGF5, soluble receptor values, retold here.

The experiment addresses human zFGF5 (human) (UniProt O76093). The experiment is described as follows: cell-based or functional assay.

human zFGF5 (human), sequence (O76093 28-207): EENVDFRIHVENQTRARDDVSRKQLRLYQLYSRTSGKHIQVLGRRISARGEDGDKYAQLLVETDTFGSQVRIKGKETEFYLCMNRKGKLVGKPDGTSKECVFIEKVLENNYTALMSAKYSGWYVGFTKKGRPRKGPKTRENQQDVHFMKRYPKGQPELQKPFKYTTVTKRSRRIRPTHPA

In the case of “FGFR3α-IIIc/Fc soluble receptor (Fc fusion)”, the Cell Proliferation (percent of control), BAF3 cells expressing FGFR3α-IIIc with zFGF5, soluble receptor at 0 fold-excess (percent of control) was determined as 100; the Cell Proliferation (percent of control), BAF3 cells expressing FGFR3α-IIIc with zFGF5, soluble receptor at 0.8 fold-excess (percent of control) came to 85; the Cell Proliferation (percent of control), BAF3 cells expressing FGFR3α-IIIc with zFGF5, soluble receptor at 1.6 fold-excess (percent of control) was found to be 66; the Cell Proliferation (percent of control), BAF3 cells expressing FGFR3α-IIIc with zFGF5, soluble receptor at 3.2 fold-excess (percent of control) came to 37. In addition, the Cell Proliferation (percent of control), BAF3 cells expressing FGFR3α-IIIc with zFGF5, soluble receptor at 6.3 (printed 6..3) fold-excess (percent of control) worked out at 5; the Cell Proliferation (percent of control), BAF3 cells expressing FGFR3α-IIIc with zFGF5, soluble receptor at 12.5 fold-excess (percent of control) is 1; the Cell Proliferation (percent of control), BAF3 cells expressing FGFR3α-IIIc with zFGF5, soluble receptor at 25 fold-excess (percent of control) was 0.2; the Cell Proliferation (percent of control), BAF3 cells expressing FGFR3α-IIIc with zFGF5, soluble receptor at 50 fold-excess (percent of control) is 0. Further, the Cell Proliferation (percent of control), BAF3 cells expressing FGFR3α-IIIc with zFGF5, soluble receptor at 100 fold-excess (percent of control) was 0.
Consider “FGFR2α-IIIb/Fc soluble receptor (from UniProt P21802 22-378) (Fc fusion)”, for which the Cell Proliferation (percent of control), BAF3 cells expressing FGFR3α-IIIc with zFGF5, soluble receptor at 0 fold-excess (percent of control) is 100; the Cell Proliferation (percent of control), BAF3 cells expressing FGFR3α-IIIc with zFGF5, soluble receptor at 62.5 fold-excess (percent of control) was found to be 101; the Cell Proliferation (percent of control), BAF3 cells expressing FGFR3α-IIIc with zFGF5, soluble receptor at 125 fold-excess (percent of control) was determined as 90; the Cell Proliferation (percent of control), BAF3 cells expressing FGFR3α-IIIc with zFGF5, soluble receptor at 250 fold-excess (percent of control) was determined as 91. The Cell Proliferation (percent of control), BAF3 cells expressing FGFR3α-IIIc with zFGF5, soluble receptor at 500 fold-excess (percent of control) came out at 101 and the Cell Proliferation (percent of control), BAF3 cells expressing FGFR3α-IIIc with zFGF5, soluble receptor at 1000 fold-excess (percent of control) turned out to be 99.
